This note sets out measurements from publication PMC6317713.

Common to all, as to assay: two-hybrid
The target of assay [1] is DIG2b (DIG10.3 I102A), knob-in-hole design.
Assay [2] deals with DIG1b (DIG10.3 E83R), charge swap design.
For assay [3], the target named is DIG10.3 monomer (DIG0), computationally designed digoxigenin-binding protein.
Assay [4] has as its target PRO0 (DIG10.3 Y34F, Y99F, Y101F), progesterone ligand-binding domain.

Consider “DIG2a (DIG10.3 I102M, V104F), knob-in-hole design (designed binder)”, for which, in assay [1], the fold increase in reporter activation with digoxigenin is above 500 fold.
In the case of “DIG1a (DIG10.3 R116E), charge swap design (designed binder)”, the fold increase in reporter activation with digoxigenin in assay [2] is above 500 fold.
Consider DIG1 (DIG10.3 E83V) (designed binder), for which the fold activation of the luciferase reporter with digoxigenin in assay [3] stood at 400 fold. The fold luciferase activity with both ligands over either ligand alone in assay [4] turned out to be 20 fold.
For “PRO0 (DIG10.3 Y34F, Y99F, Y101F), progesterone ligand-binding domain (designed binder)”, the fold increase in reporter activity with 1 uM progesterone in assay [4] is 200 fold.
With “DIG10.3 monomer (DIG0), computationally designed digoxigenin-binding protein (designed binder)”, the fold increase in luciferase activity with 50 uM digoxigenin in assay [3] is 20 fold.
